Laboratory results taken from US20050108782A1, “Transgenic RS1-/- animal and uses thereof” (priority 2003, published 2005).

T1: hSGLT1 (Homo sapiens, UniProt P13866)
T1 construct: expressed in transfected cells; host or cells: Xenopus laevis oocytes (cRNA injection)
T1 sequence (P13866 1-664): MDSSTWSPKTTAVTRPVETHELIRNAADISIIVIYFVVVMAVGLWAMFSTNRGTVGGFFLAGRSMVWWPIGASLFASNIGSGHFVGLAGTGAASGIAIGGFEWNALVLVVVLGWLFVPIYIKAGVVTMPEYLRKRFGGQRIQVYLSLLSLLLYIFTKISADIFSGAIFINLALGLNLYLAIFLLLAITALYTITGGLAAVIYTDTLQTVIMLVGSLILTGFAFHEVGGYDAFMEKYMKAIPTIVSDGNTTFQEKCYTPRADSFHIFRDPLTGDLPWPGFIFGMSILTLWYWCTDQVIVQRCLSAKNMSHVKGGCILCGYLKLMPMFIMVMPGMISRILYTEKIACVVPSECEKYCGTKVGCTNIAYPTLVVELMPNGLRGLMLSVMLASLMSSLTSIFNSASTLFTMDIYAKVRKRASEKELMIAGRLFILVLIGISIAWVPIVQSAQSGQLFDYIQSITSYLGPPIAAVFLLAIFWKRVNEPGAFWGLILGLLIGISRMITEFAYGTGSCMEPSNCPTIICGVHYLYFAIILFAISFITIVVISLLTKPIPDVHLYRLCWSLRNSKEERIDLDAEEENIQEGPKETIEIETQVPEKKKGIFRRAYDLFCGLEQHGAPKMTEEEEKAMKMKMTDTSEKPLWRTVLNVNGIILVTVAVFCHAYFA


Assays:
hSGLT1 = biological target: T1, hSGLT1; test: [14C]AMG uptake expressed by hSGLT1 in Xenopus laevis oocytes; format: cell-based
Description: (§1) Stage V-VI oocytes were removed from Xenopus laevis clawed toads, selected and injected with cRNAs or water as described earlier (Veyhl et al., (1994) J. Biol. Chem. 268, 25041-25053). Per oocyte […] of water (control) or water containing plasma membrane transporter cRNAs alone or together with different amounts of hRS1-cRNA were injected. For translation the injected oocytes were incubated for 2-3 days (16° C.) in ORi buffer (5 mM HEPES-Tris, pH 7.4, 100 mM NaCl, 3 mM KCl, 2 mM CaCl and 1 mM MgCl2) containing 50 mg/l gentamycin (Veyhl et al., (1994) J. Biol. Chem. 268, 25041-25053).
(§2) [^14C]-AMG uptake of expressed plasma membrane transporters in oocytes was measured as described earlier Veyhl et al., (1994) J. Biol. Chem. 268, 25041-25053. Each uptake value represents the mean±SEM (n=8-10 oocytes). All experiments were performed with at least 3 batches of Xenopus oocytes.
Dynamin, a member of structurally related but functionally heterogeneous family of GTPases, that is required for clathrin-mediated and other types of endocytosis. After GTP binding dynamin assembles to a ring around the neck of coated pits and induces fission and release of vesicles upon hydrolysis of GTP (Eccleston et al., (2002) Eur. Biophys. J. 31, 275-282.). […] Oocytes were injected with 2.5 ng of hSGLT1-cRNA or with 2.5 ng pf hSGLT1-cRNA plus 10 ng of hRS1-cRNA. In some experiments either 10 ng of wild-type (DyWt) dynamin cRNA or 10 ng of dominant gegative dynamin mutant (DyMu) cRNA were coinjected. After three days of incubation for expression, phlorizin inhibitable uptake of 50 μM of [^14C]AMG was measured over a time period of 15 min as described earlier (Lambotte et al., (1996) DNA Cell Biol. 15, 769-777).
(§3) According to the methods described in Example 11 Xenopus oocytes were injected with 2.5 ng of SGLT1-cRNA or with 2.5 ng of SGLT1-cRNA plus 10 ng of hRS1 and incubated three days for expression (FIG. 11). Then the oocytes were injected with 50 nl Ori buffer (controls) or with 50 nl Ori buffer containing 20 μM of the protein kinase C activator sn-1,2-dioctanoyl glycerol (DOG). After 30 min incubation the phlorizin inhibitable uptake of 50 μM [^14C]AMG was measured as in FIG. 10.

hSGLT1 and hRS1 = test: [14C]AMG uptake in Xenopus laevis oocytes coexpressing hSGLT1 and hRS1, with protein kinase C activation; format: cell-based, human; details: coexpression of hSGLT1 and hRS1; 50 nl Ori buffer containing 20 μM DOG injected, 30 min incubation; 50 μM [14C]AMG
Description: as §1, §2
as §3, with “10. […]” for “10.”

| expression of AMG uptake by hSGLT1 after coexpression of hRS1 (hSGLT1; 2.5 ng SGLT1-cRNA plus 10 ng hRS1, three days, FIG. 11) | phlorizin inhibitable uptake of 50 μM [14C]AMG (hSGLT1; 2.5 ng hSGLT1-cRNA plus 10 ng hRS1-cRNA, three days expression, hSGLT1 alone 56±7) [pmol/oocyte×15 min] | phlorizin inhibitable uptake of 50 μM [14C]AMG (hSGLT1; hSGLT1-cRNA plus hRS1-cRNA, 10 ng dominant negative dynamin mutant (DyMu) cRNA coinjected) [pmol/oocyte×15 min] | phlorizin inhibitable uptake of 50 μM [14C]AMG (hSGLT1; hSGLT1-cRNA plus hRS1-cRNA, 10 ng wild-type dynamin (DyWt) cRNA coinjected) [pmol/oocyte×15 min] | Molecule | uptake of AMG expressed by hSGLT1, change by DOG (hSGLT1; hSGLT1 alone, 50 nl Ori buffer containing 20 μM DOG injected, 30 min incubation, 50 μM [14C]AMG) | expressed uptake of AMG, change by DOG (hSGLT1 and hRS1) | Km value of AMG uptake expressed by hSGLT1 (hSGLT1; coexpression with hRS1, unpublished data not shown) | Vmax of AMG transport by hSGLT1 after coexpression with hRS1 (hSGLT1; tracer uptake studies and electrical measurements, unpublished data not shown) |
| --- | --- | --- | --- | --- | --- | --- | --- | --- |
|  |  |  |  | CCCCCCCC(=O)OC[C@H](CO)OC(=O)CCCCCCC [DOG, sn-1,2-dioctanoyl glycerol, reference compound] | increased | decreased |  |  |
| reduced | 10±1.5 | 37±3.5 | 2.5 | hRS1: human RS1 protein, expressed in Xenopus oocytes from injected hRS1-cRNA; regulator of SGLT1 (protein, UniProt Q92681 1-617, looked up) Regulatory solute carrier …: MSSLPTSDGFNHPARSSGQSPDVGNPMSLARSVSASVCPIKPSDSDRIEPKAVKALKASAEFQLNSEKKEHLSLQDLSDHASSADHAPTDQSPAMPMQNSSEEITVAGNLEKSAERSTQGLKFHLHTRQEASLSVTSTRMHEPQMFLGEKDWHPENQNLSQVSDPQQHEEPGNEQYEVAQQKASHDQEYLCNIGDLELPEERQQNQHKIVDLEATMKGNGLPQNVDPPSAKKSIPSSECSGCSNSETFMEIDTAQQSLVTLLNSTGRQNANVKNIGALDLTLDNPLMEVETSKCNPSSEILNDSISTQDLQPPETNVEIPGTNKEYGHYSSPSLCGSCQPSVESAEESCPSITAALKELHELLVVSSKPASENTSEEVICQSETIAEGQTSIKDLSERWTQNEHLTQNEQCPQVSFHQAISVSVETEKLTGTSSDTGREAVENVNFRSLGDGLSTDKEGVPKSRESINKNRSVTVTSAKTSNQLHCTLGVEISPKLLAGEEDALNQTSEQTKSLSSNFILVKDLGQGIQNSVTDRPETRENVCPDASRPLLEYEPPTSHPSSSPAILPPLIFPATDIDRILRAGFTLQEALGALHRVGGNADLALLVLLAKNIVVPT |  |  | does not change | decreased |
